According to the supplement of paper PMC9112550, “Optimization of the antimicrobial peptide Bac7 by deep mutational scanning” (BMC Biology, 2022):

Tested on: Escherichia coli TOP10
Test: shrunken log2 fold change of peptide-encoding DNA abundance (4.5 h post-induction vs induction); higher = less antimicrobial activity (less host growth inhibition)
Details: time post-induction: 4.5 h; library: site-saturation at positions 5, 18, 19, 20
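Note: peptides expressed intracellularly from a pBAD plasmid library in pooled LB shake-flask culture, induced with 0.3% L-arabinose, DNA abundance read by NGS, three biological replicates, DESeq2 with apeglm shrinkage.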

| Sequence | shrunken log2 fold change |
| --- | --- |
| RRIRCRPPRLPRPRPRPMACPRP | 0.00876 |
| RRIRARPPRLPRPRPRPFCCPRP | 0.206 |
| RRIRKRPPRLPRPRPRPHRDPRP | -0.136 |
| RRIRERPPRLPRPRPRPQPEPRP | -0.0263 |
| RRIRNRPPRLPRPRPRPIDNPRP | -0.0163 |
| RRIRHRPPRLPRPRPRPVHAPRP | 0.346 |
| RRIRRRPPRLPRPRPRPWTLPRP | -0.195 |
| RRIRTRPPRLPRPRPRPVCVPRP | 0.182 |
| RRIRYRPPRLPRPRPRPDSPPRP | -0.391 |
| RRIRCRPPRLPRPRPRPQRKPRP | 0.203 |
| RRIRHRPPRLPRPRPRPYTQPRP | -0.711 |
| RRIRKRPPRLPRPRPRPMAGPRP | 0.0722 |
| RRIRRRPPRLPRPRPRPAYHPRP | 0.0468 |
| RRIRMRPPRLPRPRPRPAVDPRP | 0.154 |
| RRIRPRPPRLPRPRPRPNHVPRP | -0.532 |
| RRIRLRPPRLPRPRPRPALSPRP | 3.4 |
| RRIRQRPPRLPRPRPRPLWWPRP | 0.121 |
| RRIRWRPPRLPRPRPRPRPCPRP | 0.514 |
| RRIRNRPPRLPRPRPRPNSPPRP | 0.0941 |
| RRIRPRPPRLPRPRPRPMDIPRP | -0.158 |
| RRIRVRPPRLPRPRPRPSCPPRP | -0.245 |
| RRIRARPPRLPRPRPRPDRPPRP | 0.448 |
| RRIRMRPPRLPRPRPRPEVEPRP | -0.0272 |
| RRIRFRPPRLPRPRPRPYAAPRP | -0.586 |
| RRIRGRPPRLPRPRPRPTKHPRP | 0.385 |

| Sequence | shrunken log2 fold change |
| --- | --- |
| RRIRLRPPRLPRPRPRPETSPRP | -0.0221 |
| RRIRDRPPRLPRPRPRPFSEPRP | -0.0447 |
| RRIRRRPPRLPRPRPRPGVDPRP | 0.31 |
| RRIRARPPRLPRPRPRPPVHPRP | 0.516 |
| RRIRDRPPRLPRPRPRPNFPPRP | -0.0273 |
| RRIRDRPPRLPRPRPRPLSEPRP | 0.111 |
| RRIRHRPPRLPRPRPRPDARPRP | 0.133 |
| RRIRQRPPRLPRPRPRPFNCPRP | -0.0275 |
| RRIRMRPPRLPRPRPRPAWHPRP | 0.726 |
| RRIRYRPPRLPRPRPRPGTIPRP | 0.137 |
| RRIRWRPPRLPRPRPRPHDHPRP | -0.152 |
| RRIRPRPPRLPRPRPRPKRFPRP | 0.297 |
| RRIRLRPPRLPRPRPRPGQIPRP | 0.207 |
| RRIRRRPPRLPRPRPRPAADPRP | 0.594 |
| RRIRCRPPRLPRPRPRPLLDPRP | 0.0618 |
| RRIRTRPPRLPRPRPRPFLHPRP | -0.524 |
| RRIRYRPPRLPRPRPRPDGKPRP | -0.01 |
| RRIRDRPPRLPRPRPRPMYSPRP | 0.0101 |
| RRIRARPPRLPRPRPRPNNDPRP | 0.026 |
| RRIRYRPPRLPRPRPRPQVQPRP | -0.0106 |
| RRIRVRPPRLPRPRPRPEAEPRP | 0.807 |
| RRIRRRPPRLPRPRPRPSVFPRP | 0.141 |
| RRIRWRPPRLPRPRPRPGLFPRP | 2.38 |
| RRIRARPPRLPRPRPRPYVYPRP | -0.182 |
| RRIRMRPPRLPRPRPRPHWHPRP | 0.0139 |

| Sequence | shrunken log2 fold change |
| --- | --- |
| RRIRRRPPRLPRPRPRPGYQPRP | 0.0538 |
| RRIRNRPPRLPRPRPRPFEHPRP | 0.0659 |
| RRIRRRPPRLPRPRPRPNWYPRP | -0.197 |
| RRIRKRPPRLPRPRPRPPFGPRP | 0.715 |
| RRIRDRPPRLPRPRPRPSSRPRP | -0.0968 |
| RRIRIRPPRLPRPRPRPVQVPRP | -0.0757 |
| RRIRPRPPRLPRPRPRPHRMPRP | -0.465 |
| RRIRHRPPRLPRPRPRPKRYPRP | -0.0093 |
| RRIRTRPPRLPRPRPRPPRAPRP | 0.786 |
| RRIRDRPPRLPRPRPRPGGEPRP | 1.41 |
| RRIRQRPPRLPRPRPRPHPYPRP | -0.0131 |
| RRIRQRPPRLPRPRPRPPGYPRP | 0.225 |
| RRIRFRPPRLPRPRPRPSEMPRP | -0.148 |
| RRIRSRPPRLPRPRPRPCKNPRP | -0.283 |
| RRIRCRPPRLPRPRPRPSMIPRP | -0.892 |
| RRIRMRPPRLPRPRPRPQTWPRP | 0.39 |
| RRIRYRPPRLPRPRPRPNVEPRP | -0.155 |
| RRIRCRPPRLPRPRPRPDGSPRP | -0.133 |
| RRIRCRPPRLPRPRPRPWDGPRP | 0.0877 |
| RRIRIRPPRLPRPRPRPEMNPRP | -0.0353 |
| RRIRNRPPRLPRPRPRPMNPPRP | -0.235 |
| RRIRYRPPRLPRPRPRPHSNPRP | -0.0748 |
| RRIRYRPPRLPRPRPRPKSSPRP | -0.147 |
| RRIRCRPPRLPRPRPRPVNKPRP | -0.196 |
| RRIRARPPRLPRPRPRPKFMPRP | 0.0584 |

| Sequence | shrunken log2 fold change |
| --- | --- |
| RRIRRRPPRLPRPRPRPCVGPRP | -0.147 |
| RRIRIRPPRLPRPRPRPYMDPRP | -0.315 |
| RRIRDRPPRLPRPRPRPNRDPRP | -0.0372 |
| RRIRQRPPRLPRPRPRPDRCPRP | 0.298 |
| RRIRWRPPRLPRPRPRPSAQPRP | 0.422 |
| RRIRDRPPRLPRPRPRPWTDPRP | 0.023 |
| RRIRQRPPRLPRPRPRPEYKPRP | -0.124 |
| RRIRCRPPRLPRPRPRPLALPRP | -0.621 |
| RRIRYRPPRLPRPRPRPWGSPRP | -0.482 |
| RRIRGRPPRLPRPRPRPYASPRP | 0.143 |
| RRIRNRPPRLPRPRPRPMIAPRP | -0.42 |
| RRIRSRPPRLPRPRPRPNCRPRP | -0.0318 |
| RRIRYRPPRLPRPRPRPWKVPRP | -0.498 |
| RRIRWRPPRLPRPRPRPDCRPRP | 0.0695 |
| RRIRSRPPRLPRPRPRPCKHPRP | -0.216 |
| RRIRGRPPRLPRPRPRPIKPPRP | -0.0362 |
| RRIRKRPPRLPRPRPRPSVMPRP | 0.163 |
| RRIRLRPPRLPRPRPRPVECPRP | 0.0709 |
| RRIRYRPPRLPRPRPRPFGQPRP | -0.219 |
| RRIRYRPPRLPRPRPRPMEAPRP | -0.163 |
| RRIRCRPPRLPRPRPRPVHDPRP | 0.141 |
| RRIRPRPPRLPRPRPRPEWTPRP | 0.22 |
| RRIRMRPPRLPRPRPRPKMFPRP | 0.0019 |
| RRIRDRPPRLPRPRPRPSYDPRP | -0.175 |
| RRIRKRPPRLPRPRPRPSEQPRP | 0.0244 |

| Sequence | shrunken log2 fold change |
| --- | --- |
| RRIRFRPPRLPRPRPRPLTTPRP | 0.0259 |
| RRIRARPPRLPRPRPRPERRPRP | 0.77 |
| RRIRFRPPRLPRPRPRPLLGPRP | 0.123 |
| RRIRKRPPRLPRPRPRPSQYPRP | -0.21 |
| RRIRKRPPRLPRPRPRPVHHPRP | -0.0438 |
| RRIRARPPRLPRPRPRPCKNPRP | 0.138 |
| RRIRKRPPRLPRPRPRPLSTPRP | 0.025 |
| RRIRYRPPRLPRPRPRPYCQPRP | -0.465 |
| RRIRNRPPRLPRPRPRPTMRPRP | 0.746 |
| RRIRSRPPRLPRPRPRPMGGPRP | 0.334 |
| RRIRWRPPRLPRPRPRPCNAPRP | -0.0905 |
| RRIRERPPRLPRPRPRPECKPRP | -0.132 |
| RRIRERPPRLPRPRPRPHCVPRP | 0.038 |
| RRIRKRPPRLPRPRPRPSKHPRP | 0.0908 |
| RRIRNRPPRLPRPRPRPQELPRP | -0.14 |
| RRIRFRPPRLPRPRPRPEQGPRP | 0.313 |
| RRIRARPPRLPRPRPRPCGRPRP | 0.526 |
| RRIRKRPPRLPRPRPRPSDAPRP | -0.0187 |
| RRIRPRPPRLPRPRPRPPAEPRP | 0.632 |
| RRIRCRPPRLPRPRPRPENKPRP | -0.415 |
| RRIRFRPPRLPRPRPRPVLQPRP | 0.21 |
| RRIRYRPPRLPRPRPRPGTEPRP | -0.521 |
| RRIRLRPPRLPRPRPRPCYSPRP | -0.142 |
| RRIRPRPPRLPRPRPRPFFMPRP | -0.196 |
| RRIRIRPPRLPRPRPRPWGFPRP | -0.185 |

| Sequence | shrunken log2 fold change |
| --- | --- |
| RRIRARPPRLPRPRPRPIREPRP | -0.018 |
| RRIRCRPPRLPRPRPRPSPQPRP | 0.445 |
| RRIRIRPPRLPRPRPRPQRPPRP | -0.465 |
| RRIRFRPPRLPRPRPRPVCMPRP | -0.498 |
| RRIRSRPPRLPRPRPRPEEMPRP | -0.0122 |
| RRIRYRPPRLPRPRPRPAVSPRP | 0.0627 |
| RRIRTRPPRLPRPRPRPIIVPRP | -0.0629 |
| RRIRQRPPRLPRPRPRPISTPRP | -0.503 |
| RRIRQRPPRLPRPRPRPPNEPRP | 0.266 |
| RRIRWRPPRLPRPRPRPYEVPRP | -0.114 |
| RRIRLRPPRLPRPRPRPTVQPRP | -0.191 |
| RRIRLRPPRLPRPRPRPSADPRP | 0.07 |
| RRIRNRPPRLPRPRPRPAWIPRP | 0.275 |
| RRIRLRPPRLPRPRPRPTIDPRP | -0.521 |
| RRIRPRPPRLPRPRPRPFYAPRP | 0.02 |
| RRIRDRPPRLPRPRPRPRAQPRP | 0.457 |
| RRIRQRPPRLPRPRPRPHHNPRP | -0.706 |
| RRIRPRPPRLPRPRPRPYKDPRP | -0.477 |
| RRIRGRPPRLPRPRPRPEYTPRP | 0.335 |
| RRIRIRPPRLPRPRPRPEGNPRP | 0.0775 |
| RRIRSRPPRLPRPRPRPGTFPRP | 0.0493 |
| RRIRHRPPRLPRPRPRPQNTPRP | -0.871 |
| RRIRERPPRLPRPRPRPADHPRP | -0.0618 |
| RRIRSRPPRLPRPRPRPATGPRP | 0.156 |
| RRIRFRPPRLPRPRPRPKLLPRP | 0.0539 |
